Some results are limits rather than exact numbers.

Sequences and labels used below:
B1: Conjugate 10: D04-Y180/F404/K42/E161-LP4 (antibody, human IgG1, kappa)
heavy: MEVQLVESGGGLVQPGGSLRLSCAASGFNISDYDIHWVRQAPGKGLEWVGGIDPADGSTDYADSVKGRFTISADTSKNTAYLQMNSLRAEDTAVYYCARDYGVYDYWGQGTLVTVSSASTKGPSVFPLAPSSKSTSGGTAALGCLVKDYFPEPVTVSWNSGALTSGVHTFPAVLQSSGLSLSSVVTVPSSSLGTQTYICNVNHKPSNTKVDKKVEPKSCDKTHTCPPCPAPELLGGPSVFLFPPKPKDTLMISRTPEVTCVVVDVSHEDPEVKFNWYVDGVEVHNAKTKPREEQYNSTYRVVSVLTVLHQDWLNGKEYKCKVSNKALPAPIEKTISKAKGQPREPQVYTLPPSREEMTKNQVSLTCLVKGFYPSDIAVEWESNGQPENNYKTTPPVLDSDGSFLYSKLTVDKSRWQQGNVFSCSVMHEALHNHYTQKSLSLSPGK
light: MDIQMTQSPSSLSASVGDRVTITCRASQDVNTAVAWYQQKPGAPKLLIYSASFLYSGVPSRFSGSRSGTDFTLTISSLQPEDFATYYCQQHYTTPPTFGQGTKVEIKRTVAAPSVFIFPPSDEQLKSGTASVVCLLNNFYPREAKVQWKVDNALQSGNSQSVTEQDSKDSTYSLSSTLTLSKADYEKHKVYACEVTHQGLSSPVTKSFNRGEC
modifications: pAMF at K42 and E161 (printed * in the sequence), linked to LP4; pAMF at Y180 and F404 (printed * in the sequence), linked to LP4
B2: Conjugate 9: D04-Y180/F404/K42/E161-LP3 (antibody, human IgG1, kappa)
heavy: B1 heavy
light: B1 light
modifications: pAMF at K42 and E161 (printed * in the sequence), linked to LP3; pAMF at Y180 and F404 (printed * in the sequence), linked to LP3
B3: Conjugate 4: D04-Y180/F404/K42/E161-LP1 (antibody, human IgG1, kappa)
heavy: B1 heavy
light: B1 light
modifications: pAMF at K42 and E161 (printed * in the sequence), linked to LP1; pAMF at Y180 and F404 (printed * in the sequence), linked to LP1
B4: Conjugate 34: D04-Y180F404/K42/E161-LP18 (antibody, human IgG1, kappa)
heavy: B1 heavy
light: B1 light
modifications: pAMF at K42 and E161 (printed * in the sequence), linked to LP18; pAMF at Y180 and F404 (printed * in the sequence), linked to LP18
B5: Conjugate 39: D04-Y180F404/K42/E161-LP22 (antibody, human IgG1, kappa)
heavy: B1 heavy
light: B1 light
modifications: pAMF at K42 and E161 (printed * in the sequence), linked to LP22; pAMF at Y180 and F404 (printed * in the sequence), linked to LP22
B6: Conjugate 35: D04-Y180F404/K42/E161-LP19 (antibody, human IgG1, kappa)
heavy: B1 heavy
light: B1 light
modifications: pAMF at K42 and E161 (printed * in the sequence), linked to LP19; pAMF at Y180 and F404 (printed * in the sequence), linked to LP19
B7: Conjugate 33: D04-Y180F404/K42/E161-LP17 (antibody, human IgG1, kappa)
heavy: B1 heavy
light: B1 light
modifications: pAMF at K42 and E161 (printed * in the sequence), linked to LP17; pAMF at Y180 and F404 (printed * in the sequence), linked to LP17
B8: Conjugate 32: D04-Y180F404/K42/E161-LP16 (antibody, human IgG1, kappa)
heavy: B1 heavy
light: B1 light
modifications: pAMF at K42 and E161 (printed * in the sequence), linked to LP16; pAMF at Y180 and F404 (printed * in the sequence), linked to LP16
B9: Conjugate 36: D04-Y180F404/K42/E161-LP20 (antibody, human IgG1, kappa)
heavy: B1 heavy
light: B1 light
modifications: pAMF at K42 and E161 (printed * in the sequence), linked to LP20; pAMF at Y180 and F404 (printed * in the sequence), linked to LP20
B10: Conjugate 38: D04-Y180F404/K42/E161-LP23 (antibody, human IgG1, kappa)
heavy: B1 heavy
light: B1 light
modifications: pAMF at K42 and E161 (printed * in the sequence), linked to LP23; pAMF at Y180 and F404 (printed * in the sequence), linked to LP23
B11: Conjugate 30: D04-Y180F404/K42/E161-LP14 (antibody, human IgG1, kappa)
heavy: B1 heavy
light: B1 light
modifications: pAMF at K42 and E161 (printed * in the sequence), linked to LP14; pAMF at Y180 and F404 (printed * in the sequence), linked to LP14
B12: Conjugate 31: D04-Y180F404/K42/E161-LP15 (antibody, human IgG1, kappa)
heavy: B1 heavy
light: B1 light
modifications: pAMF at K42 and E161 (printed * in the sequence), linked to LP15; pAMF at Y180 and F404 (printed * in the sequence), linked to LP15
B13: Conjugate 40: D04-Y180F404/K42/E161-LP21 (antibody, human IgG1, kappa)
heavy: B1 heavy
light: B1 light
modifications: pAMF at K42 and E161 (printed * in the sequence), linked to LP21; pAMF at Y180 and F404 (printed * in the sequence), linked to LP21
B14: Conjugate 14: D04-Y180/F404/K42/E161-LP12 (antibody, human IgG1, kappa)
heavy: B1 heavy
light: B1 light
modifications: pAMF at K42 and E161 (printed * in the sequence), linked to LP12; pAMF at Y180 and F404 (printed * in the sequence), linked to LP12
B15: Conjugate 8: D04-Y180/F404/K42/E161-LP2 (antibody, human IgG1, kappa)
heavy: B1 heavy
light: B1 light
modifications: pAMF at K42 and E161 (printed * in the sequence), linked to LP2; pAMF at Y180 and F404 (printed * in the sequence), linked to LP2
B16: Conjugate 15: D04-Y180/F404/K42/E161-LP13 (antibody, human IgG1, kappa)
heavy: B1 heavy
light: B1 light
modifications: pAMF at K42 and E161 (printed * in the sequence), linked to LP13; pAMF at Y180 and F404 (printed * in the sequence), linked to LP13
B17: Conjugate 12: D04-Y180/F404/K42/E161-LP5 (antibody, human IgG1, kappa)
heavy: B1 heavy
light: B1 light
modifications: pAMF at K42 and E161 (printed * in the sequence), linked to LP5; pAMF at Y180 and F404 (printed * in the sequence), linked to LP5
B18: Conjugate 11: D04-Y180/F404/K42/E161-LP7 (antibody, human IgG1, kappa)
heavy: B1 heavy
light: B1 light
modifications: pAMF at K42 and E161 (printed * in the sequence), linked to LP7; pAMF at Y180 and F404 (printed * in the sequence), linked to LP7
B19: Conjugate 13: D04-Y180/F404/K42/E161-LP6 (antibody, human IgG1, kappa)
heavy: B1 heavy
light: B1 light
modifications: pAMF at K42 and E161 (printed * in the sequence), linked to LP6; pAMF at Y180 and F404 (printed * in the sequence), linked to LP6
B20: Conjugate 16: D04-Y180/F404/K42/E161-LP34 (antibody, human IgG1, kappa)
heavy: B1 heavy
light: B1 light
modifications: pAMF at K42 and E161 (printed * in the sequence), linked to LP34; pAMF at Y180 and F404 (printed * in the sequence), linked to LP34
B21: Conjugate 4 (2188-D04-Y180/F404/K42/E161-LP1) (antibody, human IgG1, kappa)
heavy: B1 heavy
light: B1 light
modifications: pAMF in place of K42 and E161, printed '*', conjugated to LP1; pAMF in place of Y180 and F404 (EU), printed '*', conjugated to LP1
B22: Conjugate 7 (2188-D04-Y180/F404/K42/E161-LP10) (antibody, human IgG1, kappa)
heavy: B1 heavy
light: B1 light
modifications: pAMF in place of K42 and E161, printed '*', conjugated to LP10; pAMF in place of Y180 and F404 (EU), printed '*', conjugated to LP10

In one experiment the target is T1, ROR1 antigen expressed on ROR1 positive Ntera-2 cells (UniProt Q01973 30-937). The experiment can be described thus: cell-based or functional assay.
For the molecule B1, the “NTERA-2 cell killing EC50” value was determined as 0.003 nM and the “NTERA-2 cell killing Span (%)” value was determined as 96%.

As for B2, the “NTERA-2 cell killing EC50” value was determined as 0.119 nM and the “NTERA-2 cell killing Span (%)” value was 63%.

The target in another experiment is T1, ROR1 antigen expressed on ROR1 positive …. The experiment can be described thus: cell-based or functional assay. This is another data set of the same source.
B3: the “NTERA-2 cell killing EC50” value was found to be 0.067 nM and the “NTERA-2 cell killing Span (%)” value worked out at 60%.

Turning to B1, the “NTERA-2 cell killing EC50” value was determined as 0.019 nM and the “NTERA-2 cell killing Span (%)” value is 86%.

The target is the same in another experiment. The experiment can be described thus: cell-based or functional assay. This is another data set of the same source.
With B4, the “NTERA-2 cell killing EC50” value stood at 0.373 nM and the “NTERA-2 cell killing Span (%)” value was found to be 73%.

As to B3, the “NTERA-2 cell killing EC50” value came to 0.05 nM and the “NTERA-2 cell killing Span (%)” value stood at 65%.

For the molecule B5, the “NTERA-2 cell killing EC50” value is 0.215 nM and the “NTERA-2 cell killing Span (%)” value was 54%.

Regarding B1, the “NTERA-2 cell killing EC50” value worked out at 0.013 nM and the “NTERA-2 cell killing Span (%)” value is 89%.

Consider B6, for which the “NTERA-2 cell killing EC50” value was found to be 0.236 nM and the “NTERA-2 cell killing Span (%)” value was 77%.

On to B7, for which the “NTERA-2 cell killing EC50” value was determined as 0.019 nM and the “NTERA-2 cell killing Span (%)” value worked out at 87%.

Take B8: the “NTERA-2 cell killing EC50” value stood at 0.023 nM and the “NTERA-2 cell killing Span (%)” value was found to be 86%.

For B9, the “NTERA-2 cell killing EC50” value was found to be 0.222 nM and the “NTERA-2 cell killing Span (%)” value stood at 72%.

In the case of B10, the “NTERA-2 cell killing EC50” value turned out to be 0.108 nM and the “NTERA-2 cell killing Span (%)” value came to 64%.

For B11, the “NTERA-2 cell killing EC50” value worked out at 0.02 nM and the “NTERA-2 cell killing Span (%)” value stood at 88%.

As to B12, the “NTERA-2 cell killing EC50” value was determined as 0.018 nM and the “NTERA-2 cell killing Span (%)” value amounted to 87%.

Regarding B13, the “NTERA-2 cell killing EC50” value turned out to be 0.076 nM and the “NTERA-2 cell killing Span (%)” value turned out to be 68%.

Another experiment has the same target. The experiment is described as follows: cell-based or functional assay. The source holds these as a separate data set.
As to B14, the “NTERA-2 cell killing EC50” value was determined as 0.036 nM and the “NTERA-2 cell killing Span (%)” value amounted to 56%.

B3: the “NTERA-2 cell killing EC50” value came to 0.023 nM and the “NTERA-2 cell killing Span (%)” value came to 58%.

On to B1, for which the “NTERA-2 cell killing EC50” value was determined as 0.004 nM and the “NTERA-2 cell killing Span (%)” value was found to be 77%.

For the molecule B15, the “NTERA-2 cell killing EC50” value is above 10 nM and the “NTERA-2 cell killing Span (%)” value is below 10%.

On to B16, for which the “NTERA-2 cell killing EC50” value was 0.072 nM.

As to B17, the “NTERA-2 cell killing Span (%)” value was 94%.

For the molecule B18, the “NTERA-2 cell killing EC50” value was above 10 nM and the “NTERA-2 cell killing Span (%)” value was below 10%.

As for B19, the “NTERA-2 cell killing EC50” value was determined as 0.028 nM and the “NTERA-2 cell killing Span (%)” value worked out at 38%.

With B2, the “NTERA-2 cell killing EC50” value was 0.027 nM and the “NTERA-2 cell killing Span (%)” value came out at 94%.

With B20, the “NTERA-2 cell killing EC50” value is above 10 nM and the “NTERA-2 cell killing Span (%)” value was below 10%.

The next experiment has as its target human ROR1 (hROR1) (human, UniProt Q01973 30-937). The experiment can be described thus: cell-based or functional assay.
As for B21, the “NTERA-2 cell killing EC50” value amounted to 0.022 nM and the “NTERA-2 cell killing Span” value is 63%.

As for B22, the “NTERA-2 cell killing EC50” value worked out at 0.048 nM and the “NTERA-2 cell killing Span” value came to 94%.

The values above are taken from patent US20240058467A1 (SUTRO BIOPHARMA, published 2024).
